# System: Escherichia coli TOP10
# Test: shrunken log2 fold change of peptide-encoding DNA abundance (4.5 h post-induction vs induction); higher = less antimicrobial activity (less host growth inhibition)
# Conditions: time post-induction: 4.5 h; library: site-saturation at positions 5, 18, 19, 20
# 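Note: peptides expressed intracellularly from a pBAD plasmid library in pooled LB shake-flask culture, induced with 0.3% L-arabinose, DNA abundance read by NGS, three biological replicates, DESeq2 with apeglm shrinkage.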
row,Sequence,shrunken log2 fold change
1,RRIRSRPPRLPRPRPRPFMHPRP,-0.321
2,RRIRSRPPRLPRPRPRPFMVPRP,-0.337
3,RRIRSRPPRLPRPRPRPFPAPRP,0.0186
4,RRIRSRPPRLPRPRPRPFPCPRP,-0.124
5,RRIRSRPPRLPRPRPRPFPPPRP,-0.0275
6,RRIRSRPPRLPRPRPRPFQHPRP,-0.0131
7,RRIRSRPPRLPRPRPRPFRSPRP,0.00887
8,RRIRSRPPRLPRPRPRPFSQPRP,-1.07
9,RRIRSRPPRLPRPRPRPFTLPRP,-0.163
10,RRIRSRPPRLPRPRPRPFVGPRP,-0.222
11,RRIRSRPPRLPRPRPRPFWCPRP,-0.0118
12,RRIRSRPPRLPRPRPRPFWDPRP,0.0853
13,RRIRSRPPRLPRPRPRPFYDPRP,-0.254
14,RRIRSRPPRLPRPRPRPFYGPRP,-0.507
15,RRIRSRPPRLPRPRPRPFYMPRP,-0.561
16,RRIRSRPPRLPRPRPRPGADPRP,0.463
17,RRIRSRPPRLPRPRPRPGDSPRP,-0.0926
18,RRIRSRPPRLPRPRPRPGEVPRP,0.223
19,RRIRSRPPRLPRPRPRPGFWPRP,0.654
20,RRIRSRPPRLPRPRPRPGGQPRP,0.279
21,RRIRSRPPRLPRPRPRPGHAPRP,0.205
22,RRIRSRPPRLPRPRPRPGHHPRP,-0.0988
23,RRIRSRPPRLPRPRPRPGHKPRP,-0.112
24,RRIRSRPPRLPRPRPRPGHSPRP,0.0297
25,RRIRSRPPRLPRPRPRPGLAPRP,0.444

row,Sequence,shrunken log2 fold change
1,RRIRSRPPRLPRPRPRPGLIPRP,0.142
2,RRIRSRPPRLPRPRPRPGLRPRP,0.222
3,RRIRSRPPRLPRPRPRPGMNPRP,-0.249
4,RRIRSRPPRLPRPRPRPGNAPRP,0.119
5,RRIRSRPPRLPRPRPRPGNRPRP,-0.00644
6,RRIRSRPPRLPRPRPRPGPAPRP,0.682
7,RRIRSRPPRLPRPRPRPGQAPRP,0.0166
8,RRIRSRPPRLPRPRPRPGTAPRP,0.33
9,RRIRSRPPRLPRPRPRPGTPPRP,0.0374
10,RRIRSRPPRLPRPRPRPGTSPRP,-0.167
11,RRIRSRPPRLPRPRPRPGWPPRP,0.692
12,RRIRSRPPRLPRPRPRPGWWPRP,4.72
13,RRIRSRPPRLPRPRPRPGYTPRP,-0.129
14,RRIRSRPPRLPRPRPRPHCAPRP,-0.0311
15,RRIRSRPPRLPRPRPRPHCNPRP,-0.36
16,RRIRSRPPRLPRPRPRPHDIPRP,-0.0108
17,RRIRSRPPRLPRPRPRPHGVPRP,0.013
18,RRIRSRPPRLPRPRPRPHHIPRP,-1.12
19,RRIRSRPPRLPRPRPRPHHQPRP,-0.61
20,RRIRSRPPRLPRPRPRPHIPPRP,-0.836
21,RRIRSRPPRLPRPRPRPHKEPRP,-0.00927
22,RRIRSRPPRLPRPRPRPHLWPRP,-0.0232
23,RRIRSRPPRLPRPRPRPHMLPRP,-0.104
24,RRIRSRPPRLPRPRPRPHPSPRP,0.0251
25,RRIRSRPPRLPRPRPRPHQPPRP,-0.00655

row,Sequence,shrunken log2 fold change
1,RRIRSRPPRLPRPRPRPHREPRP,-0.14
2,RRIRSRPPRLPRPRPRPHSKPRP,-0.486
3,RRIRSRPPRLPRPRPRPHTIPRP,-0.87
4,RRIRSRPPRLPRPRPRPHVNPRP,-0.259
5,RRIRSRPPRLPRPRPRPHWPPRP,0.341
6,RRIRSRPPRLPRPRPRPHYAPRP,-0.247
7,RRIRSRPPRLPRPRPRPHYDPRP,-0.735
8,RRIRSRPPRLPRPRPRPHYPPRP,-0.615
9,RRIRSRPPRLPRPRPRPHYTPRP,-0.728
10,RRIRSRPPRLPRPRPRPICKPRP,-0.494
11,RRIRSRPPRLPRPRPRPIDAPRP,-0.101
12,RRIRSRPPRLPRPRPRPIDQPRP,-0.174
13,RRIRSRPPRLPRPRPRPIDRPRP,0.0178
14,RRIRSRPPRLPRPRPRPIEAPRP,0.137
15,RRIRSRPPRLPRPRPRPIEKPRP,-0.0173
16,RRIRSRPPRLPRPRPRPIFYPRP,-0.387
17,RRIRSRPPRLPRPRPRPIGNPRP,-0.234
18,RRIRSRPPRLPRPRPRPIGTPRP,-0.25
19,RRIRSRPPRLPRPRPRPIHRPRP,-0.172
20,RRIRSRPPRLPRPRPRPIKDPRP,-0.224
21,RRIRSRPPRLPRPRPRPIMNPRP,-0.0954
22,RRIRSRPPRLPRPRPRPINKPRP,-0.641
23,RRIRSRPPRLPRPRPRPINQPRP,-0.657
24,RRIRSRPPRLPRPRPRPIPMPRP,-0.0186
25,RRIRSRPPRLPRPRPRPIPWPRP,-0.121

row,Sequence,shrunken log2 fold change
1,RRIRSRPPRLPRPRPRPIQNPRP,-0.119
2,RRIRSRPPRLPRPRPRPISFPRP,-0.216
3,RRIRSRPPRLPRPRPRPISTPRP,-0.102
4,RRIRSRPPRLPRPRPRPITIPRP,-0.324
5,RRIRSRPPRLPRPRPRPIVAPRP,0.0103
6,RRIRSRPPRLPRPRPRPIVVPRP,0.027
7,RRIRSRPPRLPRPRPRPIWDPRP,0.309
8,RRIRSRPPRLPRPRPRPIWIPRP,-0.0851
9,RRIRSRPPRLPRPRPRPIWMPRP,-0.000641
10,RRIRSRPPRLPRPRPRPIWWPRP,0.361
11,RRIRSRPPRLPRPRPRPKAHPRP,0.277
12,RRIRSRPPRLPRPRPRPKCRPRP,0.0128
13,RRIRSRPPRLPRPRPRPKDRPRP,0.201
14,RRIRSRPPRLPRPRPRPKEIPRP,-0.0586
15,RRIRSRPPRLPRPRPRPKFCPRP,-0.471
16,RRIRSRPPRLPRPRPRPKGAPRP,0.38
17,RRIRSRPPRLPRPRPRPKISPRP,0.0778
18,RRIRSRPPRLPRPRPRPKLFPRP,0.172
19,RRIRSRPPRLPRPRPRPKLWPRP,0.564
20,RRIRSRPPRLPRPRPRPKMSPRP,-0.105
21,RRIRSRPPRLPRPRPRPKMTPRP,0.0901
22,RRIRSRPPRLPRPRPRPKNEPRP,-0.011
23,RRIRSRPPRLPRPRPRPKNIPRP,-0.314
24,RRIRSRPPRLPRPRPRPKNLPRP,-0.599
25,RRIRSRPPRLPRPRPRPKNSPRP,-0.431

row,Sequence,shrunken log2 fold change
1,RRIRSRPPRLPRPRPRPKQMPRP,-0.0354
2,RRIRSRPPRLPRPRPRPKQTPRP,-0.159
3,RRIRSRPPRLPRPRPRPKQWPRP,0.474
4,RRIRSRPPRLPRPRPRPKQYPRP,-0.361
5,RRIRSRPPRLPRPRPRPKSEPRP,0.0504
6,RRIRSRPPRLPRPRPRPKSLPRP,-0.0747
7,RRIRSRPPRLPRPRPRPKTCPRP,-0.0741
8,RRIRSRPPRLPRPRPRPKTMPRP,0.0109
9,RRIRSRPPRLPRPRPRPKTTPRP,0.103
10,RRIRSRPPRLPRPRPRPKVEPRP,0.213
11,RRIRSRPPRLPRPRPRPKVIPRP,-0.0209
12,RRIRSRPPRLPRPRPRPKVVPRP,0.00912
13,RRIRSRPPRLPRPRPRPKWEPRP,0.274
14,RRIRSRPPRLPRPRPRPKWFPRP,-0.0561
15,RRIRSRPPRLPRPRPRPKWSPRP,-0.132
16,RRIRSRPPRLPRPRPRPKYCPRP,-0.263
17,RRIRSRPPRLPRPRPRPKYEPRP,-0.147
18,RRIRSRPPRLPRPRPRPKYFPRP,-0.146
19,RRIRSRPPRLPRPRPRPLAVPRP,0.0333
20,RRIRSRPPRLPRPRPRPLDCPRP,-0.212
21,RRIRSRPPRLPRPRPRPLDFPRP,-0.223
22,RRIRSRPPRLPRPRPRPLHEPRP,0.339
23,RRIRSRPPRLPRPRPRPLHFPRP,-0.17
24,RRIRSRPPRLPRPRPRPLHPPRP,0.578
25,RRIRSRPPRLPRPRPRPLISPRP,-0.173

row,Sequence,shrunken log2 fold change
1,RRIRSRPPRLPRPRPRPLLCPRP,-0.039
2,RRIRSRPPRLPRPRPRPLLGPRP,0.0218
3,RRIRSRPPRLPRPRPRPLLIPRP,-0.0597
4,RRIRSRPPRLPRPRPRPLMMPRP,-0.0355
5,RRIRSRPPRLPRPRPRPLNLPRP,-0.539
6,RRIRSRPPRLPRPRPRPLNNPRP,-0.124
7,RRIRSRPPRLPRPRPRPLPYPRP,-0.25
8,RRIRSRPPRLPRPRPRPLREPRP,0.369
9,RRIRSRPPRLPRPRPRPLRYPRP,0.166
10,RRIRSRPPRLPRPRPRPLSPPRP,0.0487
11,RRIRSRPPRLPRPRPRPLTNPRP,-0.101
12,RRIRSRPPRLPRPRPRPLYCPRP,-0.523
13,RRIRSRPPRLPRPRPRPLYQPRP,-0.339
14,RRIRSRPPRLPRPRPRPMCIPRP,-0.0138
15,RRIRSRPPRLPRPRPRPMGKPRP,-0.00865
16,RRIRSRPPRLPRPRPRPMHLPRP,-0.118
17,RRIRSRPPRLPRPRPRPMKAPRP,-0.00133
18,RRIRSRPPRLPRPRPRPMKHPRP,-0.212
19,RRIRSRPPRLPRPRPRPMNMPRP,-0.118
20,RRIRSRPPRLPRPRPRPMNVPRP,-0.0106
21,RRIRSRPPRLPRPRPRPMPAPRP,0.26
22,RRIRSRPPRLPRPRPRPMQEPRP,0.169
23,RRIRSRPPRLPRPRPRPMRQPRP,0.728
24,RRIRSRPPRLPRPRPRPMRTPRP,0.654
25,RRIRSRPPRLPRPRPRPMRWPRP,0.664
